Data published in US20110262445A1 (CEPHALON AUSTRALIA, published 2011).
Residue numbers refer to the chain shown, from its start.

T1: human IL-23 (human, UniProt P29460 23-328; Q9NPF7 20-189)
T1 construct: Recombinant (Ebioscience); HIS-tagged in flow cytometry, biotinylated in some assays; also called hIL-23; rhIL-23
T1 sequence 1: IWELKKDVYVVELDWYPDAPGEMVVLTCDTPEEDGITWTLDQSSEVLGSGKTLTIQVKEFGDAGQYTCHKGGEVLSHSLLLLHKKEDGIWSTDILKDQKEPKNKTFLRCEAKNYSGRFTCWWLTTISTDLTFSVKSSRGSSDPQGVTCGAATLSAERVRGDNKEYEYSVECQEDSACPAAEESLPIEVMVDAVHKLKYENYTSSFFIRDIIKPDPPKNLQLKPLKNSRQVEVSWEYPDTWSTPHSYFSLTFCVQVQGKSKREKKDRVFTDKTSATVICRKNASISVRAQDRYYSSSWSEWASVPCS
T1 sequence 2: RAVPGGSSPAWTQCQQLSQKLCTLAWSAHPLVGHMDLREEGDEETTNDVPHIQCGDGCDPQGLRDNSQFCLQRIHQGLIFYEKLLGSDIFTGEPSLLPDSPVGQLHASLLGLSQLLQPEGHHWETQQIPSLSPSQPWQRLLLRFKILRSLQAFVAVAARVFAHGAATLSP

T2: human IL-12 (human, UniProt P29460 23-328; P29459 23-219)
T2 construct: Recombinant (Peprotech); FLAG-tagged IL-12 in the flow cytometry assays, biotinylated in the IL-12Rβ2 assay; also called hIL-12
T2 sequence 1: T1 sequence 1
T2 sequence 2: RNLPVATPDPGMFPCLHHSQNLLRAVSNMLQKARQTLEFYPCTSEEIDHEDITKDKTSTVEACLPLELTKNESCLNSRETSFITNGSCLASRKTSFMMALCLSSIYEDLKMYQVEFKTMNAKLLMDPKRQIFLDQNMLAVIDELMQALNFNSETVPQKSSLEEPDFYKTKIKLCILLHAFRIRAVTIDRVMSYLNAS

B1: Antibody 181 (antibody, human IgG1, kappa, V domains shown)
VH: EVQLVQSGAEVKKPGATVKISCKASGYTFSDYYLHWVRQAPEKGLEWMGWIDPENGDTEHAPKFQGRVTITADTSTDTGYLELSSLRSEDTAVYYCAANKELRYFDVWGQGTLVTVSS
VL: DIQMTQSPSSVSASVGDRVTITCRASQSISINLHWYQQKPGKAPKLLIYFASQSISGVPSRFSGSGSGTDFSLTINSLQTEDFATYYCQQSNSFPLTFGGGTKVEIKR
B2: Antibody 180 (antibody, human IgG1, kappa, V domains shown)
VH: B1 VH with F29L, H60S
VL: B1 VL
B3: Antibody 182 (antibody, human IgG1, kappa, V domains shown)
VH: B1 VH with F29L
VL: B1 VL
B4: Antibody 177 (antibody, human IgG1, kappa, V domains shown)
VH: B1 VH with H60S
VL: B1 VL
B5: Antibody 205 (antibody, human IgG1, kappa, V domains shown)
VH: QVQLVQSGAEVKKPGASVKVSCKASGYTFTDYYLHWVRQAPGRGLEWMGWIDPENGDTEYAPKFQGRVTMTTDTSTSTAYMELRSLRSDDTAVYYCAANKELRYFDVWGQGTMVTVSS
VL: EIVMTQSPATLSVSPGERATLSCRASQSISINLHWYQQKPGQAPRLLIYFASQSISGIPARFSGSGSGTEFTLTISSLQSEDFAVYYCQQSNSFPLTFGGGTKVEIKR
B6: Antibody 198 (antibody, human IgG1, kappa, V domains shown)
VH: B5 VH with T28A, R43Q
VL: B1 VL
B7: Antibody 192 (antibody, human IgG1, kappa, V domains shown)
VH: B5 VH with F29L, R43Q
VL: B1 VL
B8: Antibody 190 (antibody, human IgG1, kappa, V domains shown)
VH: B5 VH with R43Q, A97N
VL: B1 VL
B9: Antibody 195 (antibody, human IgG1, kappa, V domains shown)
VH: B5 VH with R43Q, Y60H
VL: B1 VL
B10: Antibody 194 (antibody, human IgG1, kappa, V domains shown)
VH: B5 VH with F29L, R43Q, Y60S
VL: B1 VL
B11: Antibody 193 (antibody, human IgG1, kappa, V domains shown)
VH: B5 VH with R43Q, Y60S
VL: B1 VL
B12: Antibody 93 (antibody, human IgG1, kappa, V domains shown)
VH: B1 VH with H60Y, A97N
VL: B1 VL with T80P, T85R
B13: Antibody 99 (antibody, human IgG1, kappa)
heavy chain: not shown
light chain: DIQMTQSPSSVSASVGDRVTITCRASQSISINLHWYQQKPGKAPKLLIYFASQSISGVPSRFSGSGSGTDFSLTINSLQPEDFARYYCQQSNSFPLTFGGGTKVEIKRTVAAPSVFIFPPSDEQLKSGTASVVCLLNNFYPREAKVQWKVDNALQSGNSQESVTEQDSKDSTYSLSSTLTLSKADYEKHKVYACEVTHQGLSSPVTKSFNRGEC
B14: Antibody 100 (antibody, human IgG1, kappa)
heavy chain: not shown
light chain: B13 light chain
B15: Antibody 105 (antibody, human IgG1, kappa, V domains shown)
VH: B1 VH with K23T, H60Y
VL: B1 VL with T80P, T85R
B16: Antibody 101 (antibody, human IgG1, kappa)
heavy chain: not shown
light chain: B13 light chain
B17: Antibody 103 (antibody, human IgG1, kappa)
heavy chain: not shown
light chain: B13 light chain
B18: Antibody 98 (antibody, human IgG1, kappa)
heavy chain: not shown
light chain: B13 light chain
B19: Antibody 102 (antibody, human IgG1, kappa)
heavy chain: not shown
light chain: B13 light chain
B20: Antibody 94 (antibody, human IgG1, kappa, V domains shown)
VH: B1 VH with H60Y, A97N, A98R
VL: B1 VL with T80P, T85R
B21: Antibody 97 (antibody, human IgG1, kappa)
heavy chain: not shown
light chain: B13 light chain
B22: Antibody 104 (antibody, human IgG1, kappa)
heavy chain: not shown
light chain: B13 light chain

molecular target: T1, human IL-23; assay: SPR, IgG on Protein A
Description: (§1) Using SPR technology the kₐ and kd and the KD of various humanized antibodies was determined.
(§2) Using a SPR 3000, Protein A was immobilized onto FC1 and FC2 (or alternatively FC3 and FC4) of a CM5 research grade sensor chip using amine coupling, giving approximately […] RU. FC1 was used a blank throughout the experiments. The experiments were run in HBS-P buffer (SPR). At a flow rate of 20 μl/min, 20 μl of 5 μg/mL of antibody was passed over FC2. IL-12, IL-23 or IL-12p40 (Peprotech) were passed over the surface of FC1 and FC2 at concentrations ranging from 66 nM to 2 nM. Regeneration of the surface was performed using 10 mM Glycine, pH 1.0. The sensorgram data from FC2 was subtracted from FC1 and a buffer only control. The curves were fitted using a 1:1 Langmuir equation to generate the kd, ka and KD values. All curves were fitted with a χ² of less then 2.0 where possible.

Kd | koff | kon | Binder
0.0424 nM | 0.000173 s⁻¹ | 4.09e+06 M⁻¹ s⁻¹ | B1
0.0297 nM | 9.27e-05 s⁻¹ | 3.12e+06 M⁻¹ s⁻¹ | B2
0.0246 nM | 0.000129 s⁻¹ | 5.27e+06 M⁻¹ s⁻¹ | B3
0.0373 nM | 0.000128 s⁻¹ | 3.43e+06 M⁻¹ s⁻¹ | B4
0.0862 nM | 0.000415 s⁻¹ | 4.81e+06 M⁻¹ s⁻¹ | B5
0.0877 nM | 0.000409 s⁻¹ | 4.65e+06 M⁻¹ s⁻¹ | B6
0.0794 nM | 0.000211 s⁻¹ | 2.66e+06 M⁻¹ s⁻¹ | B7
0.142 nM | 0.000609 s⁻¹ | 4.28e+06 M⁻¹ s⁻¹ | B8
0.05 nM | 0.000202 s⁻¹ | 4.03e+06 M⁻¹ s⁻¹ | B9
0.041 nM | 0.000122 s⁻¹ | 2.99e+06 M⁻¹ s⁻¹ | B10

molecular target: T2, human IL-12; assay: SPR, IgG on Protein A
Description: as §1, §2

Kd | koff | kon | Binder
0.0681 nM | 0.000244 s⁻¹ | 3.57e+06 M⁻¹ s⁻¹ | B1
0.0325 nM | 0.000173 s⁻¹ | 5.31e+06 M⁻¹ s⁻¹ | B2
0.0344 nM | 0.000214 s⁻¹ | 6.23e+06 M⁻¹ s⁻¹ | B3
0.046 nM | 0.000212 s⁻¹ | 4.61e+06 M⁻¹ s⁻¹ | B4
0.157 nM | 0.000581 s⁻¹ | 3.7e+06 M⁻¹ s⁻¹ | B5
0.158 nM | 0.000594 s⁻¹ | 3.75e+06 M⁻¹ s⁻¹ | B6
0.0855 nM | 0.000356 s⁻¹ | 4.16e+06 M⁻¹ s⁻¹ | B7
0.217 nM | 0.00084 s⁻¹ | 3.86e+06 M⁻¹ s⁻¹ | B8
0.0794 nM | 0.000206 s⁻¹ | 2.6e+06 M⁻¹ s⁻¹ | B11
0.103 nM | 0.000274 s⁻¹ | 2.65e+06 M⁻¹ s⁻¹ | B9
0.0927 nM | 0.000194 s⁻¹ | 2.09e+06 M⁻¹ s⁻¹ | B10

molecular target: T1, human IL-23; assay: ELISA, coated IL-23
Method in brief: (§3)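 Each value is an absorbance measuring binding. Plates (Maxisorp) carried cytokine coated at 1 μg/mL in carbonate buffer pH 9.6 overnight at 4° C, were blocked with 1% BSA in PBS for 1 hour at 25° C, and received antibody titrations for 1 hour at 25° C. Detection used goat anti-human IgG or anti-murine immunoglobulin HRP at 1:2000 for 1 hour, then TMB stopped with 1M HCl, with absorbance taken at 450 nm (reference 620 nm).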

binding result | Binder
binds | B12
binds | B13
binds | B14
binds | B15
binds | B16
binds | B17
binds | B18
binds | B19
binds | B20
binds | B21
binds | B22

molecular target: T2, human IL-12; assay: ELISA, coated IL-12
Method in brief: as §3

binding result | Binder
binds | B12
binds | B13
binds | B14
binds | B15
binds | B16
binds | B17
binds | B18
binds | B19
no binding (tested: not given) | B20
binds | B21
binds | B22
